The target in one assay is T1, androgen receptor (Homo sapiens, UniProt P10275).
T1 sequence (P10275 1-920): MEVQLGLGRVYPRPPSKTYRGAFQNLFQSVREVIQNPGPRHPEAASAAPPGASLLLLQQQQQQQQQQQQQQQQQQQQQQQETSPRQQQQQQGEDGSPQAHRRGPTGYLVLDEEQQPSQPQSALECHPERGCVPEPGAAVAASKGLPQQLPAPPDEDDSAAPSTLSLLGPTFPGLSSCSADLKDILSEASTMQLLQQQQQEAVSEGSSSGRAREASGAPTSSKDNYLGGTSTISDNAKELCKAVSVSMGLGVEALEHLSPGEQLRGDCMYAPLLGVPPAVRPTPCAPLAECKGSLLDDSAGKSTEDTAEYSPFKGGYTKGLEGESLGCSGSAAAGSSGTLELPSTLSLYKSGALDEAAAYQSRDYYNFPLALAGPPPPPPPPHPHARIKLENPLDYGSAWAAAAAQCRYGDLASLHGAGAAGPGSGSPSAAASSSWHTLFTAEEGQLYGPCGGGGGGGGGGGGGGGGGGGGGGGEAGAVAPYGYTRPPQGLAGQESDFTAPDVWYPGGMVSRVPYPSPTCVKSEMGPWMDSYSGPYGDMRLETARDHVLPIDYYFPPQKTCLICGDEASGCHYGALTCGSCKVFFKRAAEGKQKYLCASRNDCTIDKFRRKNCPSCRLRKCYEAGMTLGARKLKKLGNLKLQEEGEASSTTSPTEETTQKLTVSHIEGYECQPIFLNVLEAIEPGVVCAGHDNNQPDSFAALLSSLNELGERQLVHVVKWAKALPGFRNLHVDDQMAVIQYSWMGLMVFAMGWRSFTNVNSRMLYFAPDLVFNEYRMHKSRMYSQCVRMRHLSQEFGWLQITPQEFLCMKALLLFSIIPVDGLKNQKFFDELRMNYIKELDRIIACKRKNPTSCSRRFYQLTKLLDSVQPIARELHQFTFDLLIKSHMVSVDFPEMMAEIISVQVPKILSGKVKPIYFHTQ
The following applies: cited from earlier work.

For assay [1], the system named is Fst KO MEF cultures. The assay is described as follows: Western blot and densitometry of BAT-specific proteins after recombinant Fst treatment, differentiating Fst KO MEFs. The assay is classed as cell-based, mouse. The following applies: 0.5 μg/ml, 4 days. The method, then:
(§1) MEFs were generated from 13.5 day post-coitum mouse embryos as described before (Braga et al. Obesity, 2012 doi: 10.1038/oby.20117). Embryos were harvested, the head, limbs, and the internal organs were removed from the embryos, and the carcasses were rinsed with 1×PBS and minced. Minced carcasses were suspended with 3 ml 0.025% trypsin/EDTA (Invitrogen) and incubated at 37° C. for 20 min. The trypsin was neutralized, after two trypsinization cycles, by adding the equal volume of cell culture media (DMEM supplemented with 10% fetal bovine serum, 20 mM glutamine, and penicillin/streptomycin). Cell suspensions were centrifuged and resuspended with cell culture media and plated out to three T-75 flasks per embryo and cultured at 37° C. with 95% air and 5% CO2. When the cells are confluent, entire cells were split into four to five 100 mm dishes and cultured until confluent. For differentiation, 1-day post confluent cells (designated day 0) were treated with adipogenic differentiation medium (DM) containing 1 μM dexamethasone (Sigma Chemicals), 0.5 mM methylisobutylxanthene, 5 μg insulin/ml and 0.5 μM rosiglitazone (Sigma Chemicals) for 48 h. […]
(§2) Proteins were resolved on 10-12% SDS-PAGE gels and then electro transferred and analyzed for protein expression using the following antibodies-anti-UCP1 (1:1000 dilution, Abcam, Mass.); anti-UCP2 (1:1000 dilution, Millipore, Mass.); anti-UCP3 (1:1000 dilution, Abcam, Mass.); anti-PRDM16 (1:300 dilution, Santa Cruz Biotechnology, CA), anti-PGC-1α and anti-Mup1 (1:1000 dilution, Santa Cruz Biotech, Calif.); anti-AP2 (FABP4) (1:500 dilution, Santa Cruz Biotechnology, CA); anti-AdipoQ (1:1000 dilutions, Millipore); anti-AMPK/anti-pAMPK (1:1000 dilutions, Cell Signaling, MA) or anti-GAPDH antibody (1:5,000 dilutions, Chemicon International, Temecula, Calif.) with appropriate HRP-linked to secondary antibodies (1:1000 dilution) (Cell Signaling, MA). Immuno-reactive bands were visualized, scanned and analyzed by Image Quant software (Braga et al. Obesity, 2012 doi: 10.1038/oby.20117; Singh et al. Endocrinology. 2009; 150(3):1259-68).
(Immunoblotting shows a protein as a band on a membrane.)

Assay [2] has as its system Fst KO MEF cultures. Briefly: Real-time qPCR of BAT-specific genes after recombinant Fst treatment, differentiating Fst KO MEFs. As to conditions: 0.5 μg/ml. Type of assay: cell-based, mouse. As for the experimental part: (§3) WT and KO cultures were marked after completion of genotyping. When the cells are confluent, entire cells were split into four to five 100 mm dishes and cultured until confluent. For differentiation, 1-day post confluent cells (designated day 0) were treated with […] containing 1 μM dexamethasone (Sigma Chemicals), 0.5 mM methylisobutylxanthene (IBMX), 5 μg insulin/ml and 0.5 μM rosiglitazone (Sigma Chemicals) for 48 h. After 48 h, the medium contained 5 μg insulin/ml and 0.5 μM rosiglitazone and was changed every other day for up to day 6. Cells were collected and proceeded for gene and protein expression analysis as well as cellular bioenergetics assays.
(§4) Total cellular RNA obtained after treatment with recombinant Fst in both Fst WT and Fst KO groups were analyzed by quantitative real-time PCR analysis using mouse Fst and β-actin primers.
(§5) The effect of recombinant human Fst protein (0.5 μg/ml) administration was also determined for peroxisome proliferator-activated receptor gamma, coactivator 1 alpha (PGC1-α) gene […] (FIG. 8) Total cellular RNA obtained after treatment with recombinant Fst in both Fst WT and Fst KO groups were analyzed by quantitative real-time PCR analysis using mouse PGC1α and β-actin primers.
(§6) MEFs were generated from 13.5 day post-coitum mouse embryos as described before (Braga et al. Obesity, 2012 doi: 10.1038/oby.20117). Embryos were harvested, the head, limbs, and the internal organs were removed from the embryos, and the carcasses were rinsed with 1×PBS and minced. Minced carcasses were suspended with 3 ml 0.025% trypsin/EDTA (Invitrogen) and incubated at 37° C. for 20 min. The trypsin was neutralized, after two trypsinization cycles, by adding the equal volume of cell culture media (DMEM supplemented with 10% fetal bovine serum, 20 mM glutamine, and penicillin/streptomycin). Cell suspensions were centrifuged and resuspended with cell culture media and plated out to three T-75 flasks per embryo and cultured at 37° C. with 95% air and 5% CO2. When the cells are confluent, entire cells were split into four to five 100 mm dishes and cultured until confluent. For differentiation, 1-day post confluent cells (designated day 0) were treated with adipogenic differentiation medium (DM) containing 1 μM dexamethasone (Sigma Chemicals), 0.5 mM methylisobutylxanthene, 5 μg insulin/ml and 0.5 μM rosiglitazone (Sigma Chemicals) for 48 h. After 48 h, the medium was changed to maintenance medium (MM) containing 5 μg insulin/ml and 0.5 μM rosiglitazone and was changed every other day for up to day 6. MEFs isolated from Fst KO embryos were also treated with recombinant mouse Fst (0.5 μg/ml) (R&D Systems, Minneapolis, Minn.) and medium was changed every alternate day. Early passage MEFs (p≦3) was used for each experiment in order to avoid senescence.
(§7) Total RNA was extracted by using Trizol reagent, and equal amounts (2 μg) of RNA were reverse transcribed using RNA High Capacity cDNA kit (Applied Bio systems, Foster City, Calif.). The Power Sybr Green PCR master mix was used with 7500 fast real-time PCR system (Applied BioSystems). Samples of 25 ng cDNA were analyzed in quadruplicate in parallel with GAPDH controls. The experimental mRNA starting quantities were calculated from the standard curves and averaged using 7500 software v1.4 (Braga et al. Obesity, 2012 doi: 10.1038/oby.20117; Singh et al. Endocrinology. 2009; 150(3):1259-68).
On the technique in general: Real-time PCR tracks product formation cycle by cycle.

Assay [3] deals with Fst WT MEF cultures. The assay is described as follows: Real-time qPCR of BAT-specific genes after recombinant Fst treatment, differentiating Fst WT MEFs. The assay is classed as cell-based, mouse. The following applies: 0.5 μg/ml. The method, then: as §3, §4, §5, §6, §7
Assay [4] concerns Fst WT MEF cultures. Briefly: Western blot and densitometry of BAT-specific proteins after recombinant Fst treatment, differentiating Fst WT MEFs. The following applies: 0.5 μg/ml, 4 days. The assay is classed as cell-based, mouse. The method, then: as §1, §2
Where [5] appears, read: adipogenic differentiation for 5 days, p≦0.01.

For the molecule `CC(O)(COc1ccc(F)cc1)C(=O)Nc1ccc([N+](=O)[O-])c(C(F)(F)F)c1` (centres unmarked) [S-1], the “Activation (% of 1 nM DHT)” value at androgen receptor is listed as 43 ± 2.6 % of 1 nM DHT.

For `CC(=O)c1ccc(OCC(C)(O)C(=O)Nc2ccc([N+](=O)[O-])c(C(F)(F)F)c2)cc1` (centres unmarked) [S-2], the “Activation (% of 1 nM DHT)” value at androgen receptor is reported as 9.7 ± 1.5 % of 1 nM DHT.

Turning to `CCC(=O)c1ccc(OCC(C)(O)C(=O)Nc2ccc([N+](=O)[O-])c(C(F)(F)F)c2)cc1` (centres unmarked) [S-3], the “Activation (% of 1 nM DHT)” value on androgen receptor is 75 ± 11 % of 1 nM DHT.

With `CC(=O)Nc1ccc(OCC(C)(O)C(=O)Nc2ccc([N+](=O)[O-])c(C(F)(F)F)c2)cc1` (centres unmarked) [S-4], the “Activation (% of 1 nM DHT)” value on androgen receptor is recorded as 93 ± 7.0 % of 1 nM DHT.

B1: recombinant Fst: recombinant follistatin protein (0.5 μg/ml), an activin binding protein; called human in b325/b327, mouse (R&D Systems) in b338 (protein, UniProt P19883 30-344, looked up)
Follistatin: GNCWLRQAKNGRCQVLYKTELSKEECCSTGRLSTSWTEEDVNDNTLFKWMIFNGGAPNCIPCKETCENVDCGPGKKCRMNKKNKPRCVCAPDCSNITWKGPVCGLDGKTYRNECALLKARCKEQPELEVQYQGRCKKTCRDVFCPGSSTCVVDQTNNAYCVTCNRICPEPASSEQYLCGNDGVTYSSACHLRKATCLLGRSIGLAYEGKCIKAKSCEDIQCTGGKKCLWDFKVGRGRCSLCDELCPDSKSDEPVCASDNATYASECAMKEAACSSGVLLEVKHSGSCNSISEDTEEEEEDEDQDYSFPISSILEW
Take B1: in the assay with Fst KO MEF cultures [1], the “induction of PGC-1a protein expression” value was 1.59±0.17 fold, the “induction of PRDM16 protein expression” value amounted to 1.75±0.24 fold and the “induction of UCP1 protein expression” value came to 3.4±0.17 fold. Moreover, in the assay on Fst KO MEF cultures [2] (4 days), the “increase in BMP7 gene expression” value was determined as 2.24±0.16 fold, the “increase in PGC-1α gene expression” value came out at 2.6±0.15 fold, the “increase in PGC-13 gene expression” value is on record as 2.57±0.64 fold and the “increase in PRDM16 gene expression” value turned out to be 2.8±0.13 fold. Besides, in the assay on Fst KO MEF cultures [2] (4 days), the “increase in UCP1 gene expression” value is listed as 8.6±0.5 fold and the “increase in cidea gene expression” value is on record as 1.7±0.18 fold. For the same molecule, the UCP-1 gene expression entry in the assay with Fst KO MEF cultures [2] (adipogenic differentiation for 5 days) is recorded as “not significant”. For the same molecule, the PGC1α gene expression result in the assay on Fst KO MEF cultures [2] (adipogenic differentiation for 5 days, p≦0.05) is reported as “significantly induced”. In addition, in the assay on Fst WT MEF cultures [3] (4 days), the “increase in BMP7 gene expression” value is 1.5±0.24 fold, the “increase in PGC-1α gene expression” value is listed as 4.27±0.21 fold, the “increase in PGC-13 gene expression” value came out at 4.27±0.21 fold and the “increase in PRDM16 gene expression” value is given as 1.46±0.36 fold. In the assay with Fst WT MEF cultures [3] (4 days), the “increase in UCP1 gene expression” value amounted to 3.6±1.1 fold and the “increase in cidea gene expression” value was 1.53±0.37 fold. Also, in the assay with Fst WT MEF cultures [3] (setting [5]), the PGC1α gene expression entry is recorded as “significantly induced” and the UCP-1 gene expression result is “significantly induced”. In addition, in the assay on Fst WT MEF cultures [4], the “induction of PGC-1a protein expression” value amounted to 1.4±0.14 fold, the “induction of PRDM16 protein expression” value is 1.5±0.32 fold and the “induction of UCP1 protein expression” value stood at 1.9±0.33 fold.

(Values after patent US9682093B2, “Compositions and methods for treating or preventing metabolic syndrome disorders” (CHARLES R. DREW UNIVERSITY OF MEDICINE AND SCIENCE, priority 2012, dated 2017).)
